Experiment: soluble on expression in E. coli; label from the status in PepcDB or PDB records

Soluble on expression in E. coli, not soluble:
MGSDKIHHHHHHMLRYHMQGFSGYGVQYSPFFDNRLAVAAGSNFGLVGNGKLFILEIDRSGRIVEVNSFLTQDCLFDLAWNESHENQVLVAQGDGTLRLFDTTFKEFPIAIFKEHEREVFSCNWNLVNRQNFLSSSWDGSIKIWSPLRKQSLMTLTPRPLEITKMVDPLNAIILKKKSFTGISKNRNCVYQAQFSPHDQNLVLSCSGNSYASLFDIRLPSGKNQNNFLVHSGLEALTCDFNKYRPYVVATGGVDNAIRIWDIRMLNKNESATIKRTVPGQLHNSSCINEIPNAHGLAIRKVTWSPHHSNILMSASYDMTCRIWRDLSNDGAKETYKTNSTDATKGSIFNFTQHSEFVFGADWSLWGKPGYVASTAWDGNLFVWNGLG, MGSDKIHHHHHHMLSHEEIVAIAEDLLSKRYGGVQTLSDVEQLNGSGTSAVLRARVANSPFLQQRSVVLKYVPSTGDVFDDSALVREIVSYQFTTSLSEDVRPGPVILAYDIDKRILVISDSGNGDTFADLIDQRTGDQRMQILRNLGQSLGSLHAATADREEDFNILLNRMLAKYPATAEMQKNRDRLLPAAIEVGKKILVDAGVTVPEVVEEFARVARRRLISGRHRAFTPFDLSPDNIIVAERTHFLDYEVAGFRDATFDVACVIAGFPQFVFSRPISDDEVDELIESWVQEVRGIWPNVNNEERLQARIVTALIGWALSSVAFMKLGSISGMLNLLHVTEDGNTTLDVSNLDELLIPRSAEDDELVQQDLHDTFSALQRFAARGLDSRFPEVARFADDVVRLFLKND, MGSDKIHHHHHHMLSKDPRLYAFRDDLADKRFETEITAQRFIQGEKKRVNTAVAGLFKENNKKSEKQTECLLGEELLIFEQGKTMSWGQSLKDGYVGYIDTTILCTSAIKQTHIVSVPRTFQYLQADLRGPMEYPLSMGSKVSVVDETEVRGTIYAILESGKAIITRHLSPIGRVYEDYVTVAETLIHTPYLWGGVSGFGIDCSGLVQLSMMMTGKMVLRDTDMQQKTIGRVLTDSDKLKRGDLVFWNGHVAIMIDHENIIHANGYSMDVMIEPLEEAVTRIAKKYQYPIEKRRPIQEM, MGSDKIHHHHHHMLTEQPNWLMQRAQLTPERIALIYEDQTVTFAELFAASKRMAEQLAAHSVRKGDTAAILLQNRAEMVYAVHACFLLGVKAVLLNTKLSTHERLFQLEDSGSGFLLTDSSFEKKEYEHIVQTIDVDELMKEAAEEIEIEAYMQMDATATLMYTSGTTGKPKGVQQTFGNHYFSAVSSALNLGITEQDRWLIALPLFHISGLSALFKSVIYGMTVVLHQRFSVSDVLHSINRHEVTMISAVQTMLASLLEETNRCPESIRCILLGGGPAPLPLLEECREKGFPVFQSYGMTETCSQIVTLSPEFSMEKLGSAGKPLFSCEIKIERDGQVCEPYEHGEIMVKGPNVMKSYFNRESANEASFQNGWLKTGDLGYLDNEGFLYVLDRRSDLIISGGENIYPAEVESVLLSHPAVAEAGVSGAEDKKWGKVPHAYLVLHKPVSAGELTDYCKERLAKYKIPAKFFVLDRLPRNASNKLLRNQLKDARKGELL, MGSDKIHHHHHHMLVPMSEGDTSELDHDADHLAEGDERYLLRNKRQIRGLLQQLIDQRAVVTMHVAGRDMAVPTAVLEVDEDDDCVILDGSHNDASNRAIEQAKYLLCYAQLERVNIRFRLETPERLERDIHVAFRATLPDSLYHLQRRESYRLETPITDSPTCTIRQDAASGGNLNLQLRVIDISSGGLAVSLTTGMPLLDPQHTYRDCTLQLPDSAPIALPLTVCSQYKMTLPNGSEGFRVGMQFSDLPRGADETIQRYIFRVDRQRNARKSGVF, MGSDKIHHHHHHMLWYDSRAQRLRERSAVWAQNQKTDPDFDGLPPKYAEELQKNILGTVVLPGDPEYDTDRMLSNPRFSAYPQVIVYCEVETDVAECLRVARALSMAVVVRSGGHSTAGFSSQNGFLIDVSRMNDVCISPEALRAWVGPGTNFGKFNAKLLPYDLHTPGGACPDVCVGGYMQGGGYGFTARIFGMNCDQVEEIRVMMTDGRIVHANAELNPDLFWAVRGGTGSNFGVLLGVKYRLYRGSTFAGFSVRWSMQTDAGVQDTATSLAWLQENFMRTGAPDTMGYQMIWAFEGPEGQAKEPVLLMRGMYRGTREELQEKLAPVLALPGATLQAIYDPQQYIDLNRILLSEPYEVPEFPADMTPMPPPEAKISRYVAKPIDAAGWKALLDYFRTSPSPYTIAAMEIYGGAIARMPKGENAFFHRDVYCDLFFDVFWLTEQEKETMLAFIAGWEAAFAPHWTGQSYQNYPSPDNPGFADEYWGDTYWLLRLIKHKYDPINLLRFPQSIQPLEWHPPGPGFPPGFRGFEDPIQAIAG, MGSDKIHHHHHHMMDRAAIRQQARFELARRDFFYYCHLMASDFYKPSRRYLVELCNDLQGFLSDNEHNVLVINEPPRHGKSRTAGMFVQWLLGNDNDKKIMTGSYNETLSTVFSKNVRNAIQETKADEDVVVFNDIFPDTHIKYGDAAMNLWSLEGGYNNYLATSPTGTATGFGADIIIVDDLIKNAEEANNATVLEKHWEWFTNTMLSRLEEGGKIIIIMTRWHSQDLAGKALIELPKSDYKVKHISMKAYDEATDTMLCDEVLSKQAYLQKTKTMGADIASANYQQEPIDIKGRLYSGFKTYVDKPTFKRISAYTDTADTGKDYLASYIYGVTMDNEAYILDVVFTKEPMEVTEPLLAQKLAEWQVNTCDIESNNGGRGFARNVERLTQDSYQNRYTVFNWFHQSQNKQARILTNTTWAIEHIYFPENWRHRWSELYQNLMSYQREGKNAHDDAADALTGVVEAINDKIRTKAKVKRKSLYGL, MGSDKIHHHHHHMMERLIIDDSRFNFVPKVKTAYKAPPGLDEKLIMEISRAKDEPEWMLKHRLESLKVFNEWHNPRFGVDISGLDLGKIVSYIKPDAKKSTSWEEVPEEVKEAFDKLGIPEAERKYLAGVGAQLDSEIVYQNMKKELEKMGVIFLDMESAVREYPDLVKKYFMKLVPITDHKFAALHGAIWSGGTFLYVPAGVKIPMPLQAYFLMSNPGMGQFEHTIIVAEEGSEVTFIEGCSAPRYNIINLHAGMVEIYVKKGAKVKYLTIQNWSKNTYNLNTKRSIVDEEGSMTWVSGSLGSQKTMLYPMTILKGKGARAESMSITYAGPGQHMDTGSKVVHLAPYTSSIVSAKSISLGGGWAFYRGLLKITKEAVKSKASVECAALMLDNRSKSDTVPIIEVETDRADVGHEARIGRIGEDQIFYLMSRGLSEQEAKAMIVKGFVEPVVKELPFEYAVELNKLLELEIEKSIG, MGSDKIHHHHHHMMFVVNRHINYTDICVAKCPLCAFNNREGYLLSPEEILRKVREVDGITEVHIVGGHNPEVGVEYFEEVFRRIKREKPEVVIKALTATEVYYYAKKEKMSIREFLSRLKDAGLQAMPGGGAEILVDSVRRKISPNKCSSDEWLRVMKIAHELGIKSNATMLFGHVEEIRHRAIHLYRLRKLQEKTGGFVSFIPLVYHPENNPLGKIVREKTNPVDILKTIAVSRIALDNFRSVRAYWVMLGEKLTEVALRFGANDIDGTVVEEKVTHAAGAETPAGLTVERLVEICRSAGKRVGQRDTFCNILKWYA, MGSDKIHHHHHHMMIMLDPFSEKAKELLKGFGSINDFMDAIPKIVSVDDVIERIRVVKNEKLIDKFLDQDNVMDLAQFYALLGALSYSPYGIELELVKKANLIIYSERLKRKKEIKPEEISIDVSTAIEFPTEDVRKIERVYGKIPEYTMKISDFLDLVPDEKLANYYIYEGRVYLKREDLIRIWSKAFERNVERGVNMLYEIRDELPEFYRKVLGEIQAFAEEEFGRKFGEIQGGKLRPEFFPPCIKNALKGVPQGIRNYAITVLLTSFLSYARICPNPPRRNVRVKDCIKDIRVITEEILPIIIEAANRCSPPLFEDQPNEIKNIWYHLGFGYTANPSLEDSGNSTWYFPPNCEKIRANAPQLCTPDKHCKYIRNPLTYYLRRLYLEGRRNAPKRGNKRGKKELLHQ, MGSDKIHHHHHHMMRGAPMTLRPRLICLPPAGAGPSLFRSWVQNSESIFDVVPVALPGREAHFTKPLPRDIQSLADHVTNEIIGLLQAPYALFGYSMGAVVAYELLRHLSLRRLPLPDAFYILGSNAPDRVLEGREPIHSMTSEDFQQSLVEIGGTPDEILRDREAMALFEPVLRNDFRICETYEFTPPHLPVTFPVHVFVADADHLVSWKAAGAWENCIGQDITMHGIEGSHMLPPQAFAHFIGKLGQLWQTDQVQACAVSTRTA, MGSDKIHHHHHHMMTDARTTAEGGMETSYGFHKVDEGKKQGLVNEVFHKVAKRYDIMNDVMSAGLHRLWKDAMVSALSPRKDPSYKILDVAGGTGDVAFRIIEASNRLAHATVLDINGSMLAVGEERAAKKKLSDNLTFVEANAEELPFEANTFDAYTVAFGIRNVPRIDVALKEAYRVLKRGGRLLVLEFSEVDMPLLDRVYDAWSFNAIPQFGKMITGDAEPYQYLVESIRKFPNQEDFATMIRTAGFSRVTYTNYTGGIAALHSGWKL, MGSDKIHHHHHHMMTLTVEYYFTHPQDKLGMYASDPEDNSQEHGHEFAELVIVEEGHGLHVINGRPLYIQQGDVFYVQPGDVHYYDELGTLKLINVLINPAVAFGYLQQMEGLLQQLSAQRAACYGWLAPETRSYCRELVEKIFSPALRAADNTPLRESLFFQLVTTILTAESEAEYSSTRYKLHKLLTWLQEHCFEEHNWQQLAEQFHLTTRTAFRHIKEATGLTPDNYLKRLRLVSARVKLRETEMTITEVAYLCGFANSNHFTTLYKKVFGLTPSADRRRPPG, MGSDKIHHHHHHMMYKHVALLVRQDDMSHEEFVDYWQANHTPIAKDIEGVVRYQQVLPTEPAHAEFDGLAELYFETLEDLHEALGSPGSRDYDPTKEIAAKAREDVNNFLAVEERPRIIGEEIVQKDEVDGDTDGLYKHSAFLVRQDDMTHEEFVDYWQTNHTPIAREIEGVVKYNTVIPTDPENAEFDGVAELYFDDIEKLYDALGSEGLRDYAPDRGKAKAAREDVNNFLAIDERPRFIGQEQLVKDEG, MGSDKIHHHHHHMNALTWLTKHSQAVIFRKKLAGLTACSQMIELSTPLNDGQRKFIFRQQSARATLLAINYAQEAYILQHLDALPFTPKVYYQTANSSLLTWLEGKPATAFDPDLLEQLALQLATLHAYPLPKQRTILQLAERCQLLWDRLTPSQQHQLNFCPPFKKIEPLQLAICHHDLHLANLIQHQQQLFIIDWEYSAISDPVLEIALFFQANTLNSVQKQFFLTTYLSKINLNEPLFKQKMAEYTPAIQQLSQLWYALSEAIT, MGSDKIHHHHHHMNAVISILVENTTPSPSLIGEYGFSALVEVDERKILFDTGSSDALFKNAENLGVKLEEVEALVISHGHFDHTSAVIPFLQRFGPKKLYLHPGIFSQRYLQGKKGLGPNIGCPFEPEDLVKNGAEIIFIDSFSEIMPGVFISGEIPRRNSFENTGGNFKVATHHGLLEDRLLDDMALLVDHPEGLIIISGCAHSGMINTIEYIREKTGRSKILAFIGGTHLITASEDRLAQTIAVLKMMDIEKIAVGHCTGFYAAARLLNELGPRVIKADTGMSFSF

Source: the DeepSol protein solubility set
